Square brackets hold non-standard residues; d marks the D form. Ends that are not written are not given here. Ala(7-OPO3H2-coumarin-4-yl) = N[C@@H](Cc1cc(=O)oc2cc(OP(=O)(O)O)ccc12)C(=O)O

The target in data set [1] is T1, T cell PTP (TCPTP) (Homo sapiens, UniProt P17706).
T1 sequence (P17706 1-415): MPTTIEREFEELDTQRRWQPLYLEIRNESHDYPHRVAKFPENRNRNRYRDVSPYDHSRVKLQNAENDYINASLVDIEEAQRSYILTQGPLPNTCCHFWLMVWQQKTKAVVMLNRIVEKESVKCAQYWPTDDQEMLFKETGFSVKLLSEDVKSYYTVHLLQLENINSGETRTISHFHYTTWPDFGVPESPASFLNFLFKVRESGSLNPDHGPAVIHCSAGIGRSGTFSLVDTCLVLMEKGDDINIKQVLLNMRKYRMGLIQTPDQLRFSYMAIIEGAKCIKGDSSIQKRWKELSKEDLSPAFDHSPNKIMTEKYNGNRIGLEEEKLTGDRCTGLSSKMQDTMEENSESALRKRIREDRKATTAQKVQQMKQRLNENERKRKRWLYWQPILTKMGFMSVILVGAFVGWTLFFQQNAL
Conditions: cited from earlier work.

The target in data set [2] is YOP (Yersinia enterocolitica, UniProt P15273). Conditions: excitation at 340 nm and emission at 460 nm; cited from earlier work.
YOP, sequence (P15273 whole entry): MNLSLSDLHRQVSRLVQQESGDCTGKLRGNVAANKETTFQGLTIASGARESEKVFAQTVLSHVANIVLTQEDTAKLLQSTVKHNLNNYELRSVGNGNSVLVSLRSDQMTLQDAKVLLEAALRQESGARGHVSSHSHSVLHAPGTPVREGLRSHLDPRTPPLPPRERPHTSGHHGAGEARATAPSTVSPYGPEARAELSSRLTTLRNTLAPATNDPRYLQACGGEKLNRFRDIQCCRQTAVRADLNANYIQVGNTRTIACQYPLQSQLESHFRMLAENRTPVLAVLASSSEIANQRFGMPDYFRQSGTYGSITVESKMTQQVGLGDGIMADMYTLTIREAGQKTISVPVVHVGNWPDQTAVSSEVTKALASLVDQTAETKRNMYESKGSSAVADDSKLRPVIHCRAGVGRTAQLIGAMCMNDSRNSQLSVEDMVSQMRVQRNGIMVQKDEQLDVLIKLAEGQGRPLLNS
Data set [3] concerns T2, 9LckpCAP394 peptide (EDNE-pCAP-TARE).
T2 sequence: EDNEXTARE

Data set [4] concerns Jurkat TAg (JTAg) cells. Briefly: Cellular uptake of cell-permeable CAP peptides, flow cytometry. Format: cell-based. Conditions: JTAg T cells treated with lipid-R7 peptides. The procedure:
FIG. 6. […] Cells were incubated for 1 hour with RPMI with 0.5% FBS with DMSO alone or containing 12.5 μM of Ant-CAP or R8-CAP. The fluorescence (Y axis) versus forward scatter (X axis) of 10,000 cells gated as live T cells on the forward versus side scatter plot is shown. The percentage (%) of positive (showing fluorescence over the control level) cells is shown in each panel.
The inventors have shown that pCAP peptides are dephosphorylated by PTPs, but are not recognized by serine/threonine phosphatases, which makes them particularly suitable as probes to detect intracellular PTP activity (FIG. 1). […] The amount of enzyme used was normalized to be the same activity on DiFMUP. […] To determine if these peptides are suitable substrates for cell-based screening of PTP inhibitors, the inventors further assessed dephosphorylation in microinjected cells. Using fluorescence microscopy, intracellular dephosphorylation of the microinjected peptides was observed as recognized by an increase in fluorescence over time and was inhibited by a known PTP inhibitor (FIG. 2). […] Human Jurkat TAg (JTAg) cells with CAP-ANT and CAP-R8 peptides were incubated and analyzed by flow cytometry. […]
Cells are added to wells of a plate at a concentration of up to 10 million/mL. […] Cells can be analyzed with any flow cytometry system equipped with appropriate excitation and emission filters.

Data set [5] has as its target T3, PTPN22 (Homo sapiens, UniProt Q9Y2R2).
T3 sequence (Q9Y2R2 1-807): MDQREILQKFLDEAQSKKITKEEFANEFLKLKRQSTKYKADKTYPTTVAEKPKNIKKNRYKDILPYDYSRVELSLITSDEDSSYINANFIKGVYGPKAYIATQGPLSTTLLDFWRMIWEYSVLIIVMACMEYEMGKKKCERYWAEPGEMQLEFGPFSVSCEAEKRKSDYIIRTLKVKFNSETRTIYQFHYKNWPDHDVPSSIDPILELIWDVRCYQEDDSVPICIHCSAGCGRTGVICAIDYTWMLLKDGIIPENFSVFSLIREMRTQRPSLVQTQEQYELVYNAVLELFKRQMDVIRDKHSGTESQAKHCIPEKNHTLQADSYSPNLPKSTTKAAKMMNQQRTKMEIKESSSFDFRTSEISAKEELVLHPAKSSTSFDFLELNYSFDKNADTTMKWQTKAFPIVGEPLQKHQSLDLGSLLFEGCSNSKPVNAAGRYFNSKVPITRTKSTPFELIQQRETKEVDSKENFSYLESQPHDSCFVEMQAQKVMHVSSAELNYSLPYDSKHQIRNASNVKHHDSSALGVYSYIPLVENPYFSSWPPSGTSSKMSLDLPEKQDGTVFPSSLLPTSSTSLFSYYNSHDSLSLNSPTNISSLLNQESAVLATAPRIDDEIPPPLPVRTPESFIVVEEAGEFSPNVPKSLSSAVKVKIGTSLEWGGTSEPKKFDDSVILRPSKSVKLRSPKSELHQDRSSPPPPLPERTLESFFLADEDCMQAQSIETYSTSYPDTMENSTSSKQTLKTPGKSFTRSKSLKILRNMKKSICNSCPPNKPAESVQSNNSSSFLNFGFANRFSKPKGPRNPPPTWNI
Briefly: Dephosphorylation of pCAP peptide by PTPN22. Format: biochemical. The protocol: (§1) (A) Structure of CAP, pCAP, and Et2-pCAP, a non-hydrolyzable form of pCAP. (B) Kinetic parameters of dephosphorylation of 9LckpCAP394 peptide by PTPN22. (C) Time-course of dephosphorylation of 0.2 mM 9LckpCAP394 peptide by PP1 (filled triangles), PP2A (open squares), or PP2B (filled squares). Linear regression is also shown. The activity of the enzymes was normalized using difluoromethylumbelliferone phosphate (DiFMUP) as substrate and equal units were used for all the assays on pCAP peptide. Open diamonds and dashed line show representative activity of all enzymes on 0.2 mM DiFMUP.
(§2) The amount of enzyme used was normalized to be the same activity on DiFMUP. […] To determine if these peptides are suitable substrates for cell-based screening of PTP inhibitors, the inventors further assessed dephosphorylation in microinjected cells. […] In principle, any FACS system equipped with the appropriate excitation and emission filters could be used. […] Human Jurkat TAg (JTAg) cells with CAP-ANT and CAP-R8 peptides were incubated and analyzed by flow cytometry.

The test system of data set [6] is serine-threonine phosphatases (PP1, PP2A, PP2B). The experiment in a line: Dephosphorylation of pCAP peptide by serine-threonine phosphatases, plate reader time-course. Format: biochemical. To be noted: 0.2 mM peptide; optimal buffer for each enzyme; enzyme amount normalized to same activity on DiFMUP. The protocol: as §1, §2
For data set [7], the system named is intracellular PTPs in JTAg cells. The experiment in a line: Intracellular dephosphorylation of nucleofected pCAP peptide, flow cytometry. In kind it is cell-based, human. To be noted: preincubated with 10 mM vanadate; 100 μM 9LckpCAP394 peptide; 1′ after nucleofection. The procedure: FIG. 3. Dephosphorylation of pCAP peptide by intracellular PTPs after nucleofection. (A) Time-course of intracellular dephosphorylation of nucleofected 9Lck394 CAP-based peptides. JTAg human T cells were nucleofected in the presence of 100 μM pCAP peptide (blue lines), 100 μM CAP peptide (red lines) or 100 μM of a non-hydrolyzable Et2pCAP peptide (green lines). Cell fluorescence was measured using a BD LSR-II with a DAPI filter at 30″ (dotted lines) and 1′ (continuous lines). […] (B) Fluorescence of non-nucleofected JTAg cells incubated in the presence of the CAP-based peptides used for the experiment in panel (A). Graphs show fluorescence of non-nucleofected cells incubated with 100 μM pCAP peptide (dashed blue line), 100 μM CAP peptide (dashed red line) or 100 μM of a non-hydrolyzable Et2pCAP peptide (dashed green line). Data from panel (A) and (B) are representative of the same experiment. […] JTAg cells were nucleofected in the presence of 100 μM 9LckpCAP394 peptide and cell fluorescence was measured at 1′ (pink line), 2.5′ (purple line), 5′ (light blue line), and 10′ (dark blue line). […]
FIG. 4. […] Dashed red and blue lines show fluorescence of non-nucleofected cells incubated with pCAP peptide (blue dashed line) or CAP peptide (red dashed line), and vanadate.
FIG. 5. […] The fluorescence of cells was assessed at 1′ (black lines) or 15′ (yellow lines) after fixation. […]

Data set [8] deals with T4, 9LckpCAP394 peptide (EDNE-pCAP-TARE).
T4 chain: EDNEXTARE

As to “DADE-pCAP-GPAA-NH2 (DADEXGPAX; pCAP residue, C-terminal amide; artificial YOP substrate) [peptide 1]”, the “turnover by human PTPs including TCPTP” value in data set [1] is listed as “efficiently turned over”. In addition, in data set [2], the “fluorescence change on dephosphorylation by YOP” value is recorded as “linear increase in fluorescence”.

On to PP1, for which, in data set [3], the “hydrolysis (dephosphorylation) of 0.2 mM pCAP peptide over time, fluorescence excitation 340 nm / emission 460 nm” value is on record as “The serine-threonine phosphatases were ineffective at hydrolysis of this peptide”. With C16-betaAla-R7-CAP, the “efficacy of internalization compared to non-lipidic tags” value in data set [4] was “substantially increase efficacy of internalization”.

Take “EDNE-pCAP-TARE (EDNE[Ala(7-OPO3H2-coumarin-4-yl)]TARE) [9Lck394p CAP, pCAP peptide, artificial PTPN22 substrate]”: the “hydrolysis by PTPN22” value in data set [5] is “efficiently hydrolyzed”. In addition, the “hydrolysis by serine-threonine phosphatases” value in data set [6] is reported as “ineffective at hydrolysis”. For PP2A, in data set [3], the “hydrolysis (dephosphorylation) of 0.2 mM pCAP peptide over time, fluorescence excitation 340 nm / emission 460 nm” value is “The serine-threonine phosphatases were ineffective at hydrolysis of this peptide”.

Regarding `[O]=[V]([O-])([O-])[O-]` [Vanadate, vanadate], the “inhibition of dephosphorylation of pCAP peptide in nucleofected JTAg cells” value in data set [7] is on record as “inhibits the dephosphorylation”.

Take C14-betaAla-R7-CAP: in data set [4], the “efficacy of internalization compared to non-lipidic tags” value is on record as “substantially increase efficacy of internalization”. For PP2B, the “hydrolysis (dephosphorylation) of 0.2 mM pCAP peptide over time, fluorescence excitation 340 nm / emission 460 nm” value in data set [3] is “The serine-threonine phosphatases were ineffective at hydrolysis of this peptide”.

B1: PTPN22 (protein)
chain: MDQREILQKFLDEAQSKKITKEEFANEFLKLKRQSTKYKADKTYPTTVAEKPKNIKKNRYKDILPYDYSRVELSLITSDEDSSYINANFIKGVYGPKAYIATQGPLSTTLLDFWRMIWEYSVLIIVMACMEYEMGKKKCERYWAEPGEMQLEFGPFSVSCEAEKRKSDYIIRTLKVKFNSETRTIYQFHYKNWPDHDVPSSIDPILELIWDVRCYQEDDSVPICIHCSAGCGRTGVICAIDYTWMLLKDGIIPENFSVFSLIREMRTQRPSLVQTQEQYELVYNAVLELFKRQM
With B1, in data set [8], the “hydrolysis (dephosphorylation) of pCAP peptide, fluorescence excitation 340 nm / emission 460 nm” value was “efficiently hydrolyzed by PTPN22”.

(Values after patent US8399213B2, “Method for monitoring intracellular tyrosine phosphatase activity” (University of Southern California, priority 2008, dated 2013).)
